# Experimental data as given in article PMC3175422.
# Target: calreticulin (CRT) (UniProt P27797)
# Test: SPR
# UniProt P27797, sequence (P27797 18-417): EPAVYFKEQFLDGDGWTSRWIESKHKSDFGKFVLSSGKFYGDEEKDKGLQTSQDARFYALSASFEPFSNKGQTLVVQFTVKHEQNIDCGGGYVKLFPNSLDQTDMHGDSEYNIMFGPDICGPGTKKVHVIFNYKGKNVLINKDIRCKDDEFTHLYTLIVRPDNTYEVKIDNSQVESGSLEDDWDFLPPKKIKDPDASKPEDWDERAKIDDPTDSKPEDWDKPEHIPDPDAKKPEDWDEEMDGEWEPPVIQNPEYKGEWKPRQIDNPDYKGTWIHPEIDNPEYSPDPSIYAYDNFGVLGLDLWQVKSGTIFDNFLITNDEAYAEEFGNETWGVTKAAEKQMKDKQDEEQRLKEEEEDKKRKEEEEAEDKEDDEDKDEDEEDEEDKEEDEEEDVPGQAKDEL
Substance,Kd [nM],koff [s⁻¹],kon [M⁻¹ s⁻¹]
Glc1Man9GlcNAc2-RNase (1) (from UniProt P61823 27-150) (enzyme),38,0.000482,12800
Gal1Glc1Man9GlcNAc2-RNase (2) (from UniProt P61823 27-150) (enzyme),110,0.00199,18100
